Laboratory results published in the supplement of paper PMC10201428.
± gives the standard deviation of the averaged measurements.

Tested on: VchCAST RNA-guided transposition machinery (E. coli BL21(DE3) host, lacZ target)
Assay: relative integration efficiency (T-LR orientation) vs wild-type transposon end (log2 (normalized fold change)); transposon end mutated: right end (5 bp flank + 75 bp right end); higher = more efficient transposition
How it was run: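 Barcoded pools of 1549 left-end or 1849 right-end transposon variants were cloned into a pUC57 mini-transposon donor. Each pool was co-transformed with a T7-driven effector plasmid (CRISPR array, tniQ-cas8-cas7-cas6, tnsA-tnsB-tnsC) into E. coli BL21(DE3) and plated with 0.1 mM IPTG at 37°C for 18 h. Input plasmids and genomic integration junctions were PCR-amplified and Illumina-sequenced, with two biological output replicates and four wild-type barcodes as reference. Relative integration efficiency is output/input barcode abundance fold change, normalised to wild-type barcodes and log-transformed.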

Sequence | relative integration efficiency (log2)
ACATTTGTTGATACAACCATAAAATGATAATATGTCCCATAAATTGATAATTATCACACCCATAAATTGATATTGCCTCTGATCATAGTCAGACCAACATTGCTACGACCCGTATTCGCACCGACAC | -0.96 ± 0.27
ACATTTGTTGATACACCCATAAATTGATAATTACAACCATAAAGTGATATTTATCACAACCATAAAATGATAATTACTCTGATCATAGTCAGACCAACATTGCTACGACCCGTATTCGCACCGACAC | -0.432 ± 0.17
ACATTTGTTGATACAACCATAAAATGATAATTACACCCATAAATTGATAATTATCACACCCATAAATTGATATTGCCTCTGTTGGCGCCCGGCCCTCAGGCCCTGCAGTGAGTTCCAGCACCGACAC | 0.0708 ± 0.019
ACATTTCTTCATACAACCATAAAATGATAATTACACCCATAAATTGATCATTATCACACCCAATTTAACTATAACGCTCTGATCATAGTCAGACCAACATTGCTACGACCCGTATTCGCACCGACAC | -3.3 ± 0.16
ACATTTGTGGATACAACCATAAAACGATAATTACACCCATAAATTCATAATTATCACACCCAATTTAACTATAACGCTCTGATCATAGTCAGACCAACATTGCTACGACCCGTATTCGCACCGACAC | 0.933 ± 0.13
ACATTTGTTGATACAACCATAAAATGATAATTAATAATTATTTATAATCACACCCATAAATTGATAATTATCAACAAACGCCCGGTCGCGGTACTCTGATCATAGTCAGACCAACATTGCTACGACC | 1.25 ± 0.18
ACATTTGTCGATACAACCATAAAATGATAATTACACCCATAAATTCATCATTATCACACCCAATTTAACTATAACGCTCTGATCATAGTCAGACCAACATTGCTACGACCCGTATTCGCACCGACAC | 1.45 ± 0.14
ACATTTGTTGATACAACCTATTAATGATAATTACACCCATAAATTGATAATTATCACACCCATAAATTGATATTGCCTCTGATCATAGTCAGACCAACATTGCTACGACCCGTATTCGCACCGACAC | -1.46 ± 0.16
ACATTTGTTGATACAACCATATATTGATATCTCCACCCATAAATTGATATTGCTCACAACCATAAGTTGATATTTTCTCTGATCATAGTCAGACCAACATTGCTACGACCCGTATTCGCACCGACAC | 0.281 ± 0.01
CACGGTGTTGATACAACCATAAAATGATAATTACACCCATAAATTGATAATTATCACACCCATAAATTGATATTGCCTCTGATCATAGTCAGACCAACATTGCTACGACCCGTATTCGCACCGACAC | 0.107 ± 0.15
ACATTTGTTGATACAACCATAAAATGATAATATCACCCATAAATTGATAATTATCACACCCATAAATTGATATTGCCTCTGATCATAGTCAGACCAACATTGCTACGACCCGTATTCGCACCGACAC | -0.505 ± 0.091
ACATTTGTTGATACAACCATAAAATGATAATTACACCCATAAATTGATAATTATCACACCCATAAATTGATATTGCCTCTGACAACCATAAAATGATAATTATCATAGTCAGACCAAGCACCGACAC | -0.0996 ± 0.32
ACATTAGTTGATACAACCATAAAATGATAATTACACCCATAAATTCATAATTATCACACCCAATTTAACTATAACGCTCTGATCATAGTCAGACCAACATTGCTACGACCCGTATTCGCACCGACAC | -4.45 ± 0.066
ACATTTGTTGATACAACCATAAAAGGATAATTACACCCATCAATTGATAATTATCACACCCAATTTAACTATAACGCTCTGATCATAGTCAGACCAACATTGCTACGACCCGTATTCGCACCGACAC | 1.06 ± 0.24
ACATTTGTAAATAAAACCATACGTTGATTTTACGAAACCATACGCTGAAATAATCACACCCATAAATTGATATTGCCTCTGATCATAGTCAGACCAACATTGCTACGACCCGTATTCGCACCGACAC | -4.7 ± 0.57
ACATTTGTTGATACAACCATAAAATGATAATTACACCCATAAATTGATAATTATCACACCCATAAATTGATATTGCCTCTTCATGGTCTAAACTTCAGTTTCAAATGCTGATTTTCAGCACCGACAC | 0.262 ± 0.23
ACATTTGTGGATACAACCATAAAATGATAATTACACCCATAAATTCATTATTATCACACCCAATTTAACTATAACGCTCTGATCATAGTCAGACCAACATTGCTACGACCCGTATTCGCACCGACAC | 0.908 ± 0.36
ACATTGGTTCATACAACCATAAAATGATAATTACACCCATAAATTGATAATTATCACACCCAATTTAACTATAACGCTCTGATCATAGTCAGACCAACATTGCTACGACCCGTATTCGCACCGACAC | -4.38 ± 1.6
ACATTTGTTGATACAACCATAAAATGGTAATTCCACCCATACATTGATAATTATCACACCCAATTTAACTATAACGCTCTGATCATAGTCAGACCAACATTGCTACGACCCGTATTCGCACCGACAC | 0.391 ± 0.15
ACATTTGTTGATACAACCATAAAATGATAATTACACCCATAATAACATAATTATCACACCCATAAATTGATATTGCCTCTGATCATAGTCAGACCAACATTGCTACGACCCGTATTCGCACCGACAC | -1.45 ± 0.04
ACATTTGTTGATACAACGTATAAATGATAATTACACCCATAAATTGATAATTATCACACCCATAAATTGATATTGCCTCTGATCATAGTCAGACCAACATTGCTACGACCCGTATTCGCACCGACAC | -2.43 ± 0.46
ACATTTGTTGATACAACCATAAAATGATAATTACACCCATAAATTGATAATTAGACACAAACGCCCGGTCGCGGTAAGAGGATCATAGTCAGACCAACATTGCTACGACCCGTATTCGCACCGACAC | 2.66 ± 0.16
ACATTTGCTGATAGAACCATATAATGATAATAACACCAATAAAATGATAATTATCACACCCAATTTAACTATAACGCTCTGATCATAGTCAGACCAACATTGCTACGACCCGTATTCGCACCGACAC | -2.34 ± 0.35
ACATTTGTCGATACAACCCTAAAATGATAATTACACCCATAAATGGATCATTATCACACCCAATTTAACTATAACGCTCTGATCATAGTCAGACCAACATTGCTACGACCCGTATTCGCACCGACAC | -1.24 ± 0.25
ACATTTGTTGATACAACCAATAAATGATAATTACACCCATAAATTGATAATAATGACACCGAATTTAACTATAACGCTCTGATCATAGTCAGACCAACATTGCTACGACCCGTATTCGCACCGACAC | 2.08 ± 0.21
